Patent US20260250366A1 (RIN INSTITUTE, published 2026)

Key:
AMU1114 = target: T1, AMU1114 (Homo sapiens (Human), UniProt P0DOX7 1-214); assay: assay not named in the sentence (ELISA of FIG. 5 presumably)
T1 construct: Complex of a fusion heavy chain (Fab region linked to a prourokinase mutant) and an antibody light chain; F396 of the heavy chain corresponds to F157 of urokinase
Procedure: (§1) The concentration of each of the human and mouse urokinase receptors was adjusted with PBS to 1 μg/mL. The resultant solution was dispensed in the wells of a 96-well plate in a volume of 50 μL/well, allowed to stand still at room temperature for 90 minutes to immobilize the receptor. To the plate having the receptor immobilized thereon, TBS-T containing 1% BSA was dispensed in a volume of 300 μL/well. The plate was allowed to stand still at room temperature for 60 minutes to block the plate. To the plate blocked, the sample (mutant) adjusted in concentration to 1000 ng/mL, 111.1 ng/mL or 12.3 ng/mL was added in a volume of 50 μL/well and allowed to react at room temperature for 60 minutes. After washing with TBS-T, HRP-conjugated anti-human Kappa chain antibody (Bethyl) diluted with 1% BSA-containing TBS-T to 1/50,000 fold was dispensed in a volume of 50 μL/well and allowed to react at room temperature for 60 minutes. After washing, a TMB (3,3′,5,5′-tetramethylbenzidine) coloring reagent was allowed to react for 15 minutes. The reaction was terminated with 2N H₂SO₄ (30 μL/well). Absorbance at 450 nm was measured.

[1] = target: AMU1114 (Δ22-28, F157E) mutant (Homo sapiens (Human), UniProt P0DOX7 1-214); assay: ELISA, receptor immobilized, detection with HRP anti-human Kappa chain antibody; compared with PBS
Procedure: as §1

Sequence of AMU1114 (Δ22-28, F157E) mutant (P0DOX7 other isoform, or with tags, fused parts or gaps F157E F157E limits assumed, chain 2 of 2, other chains not shown): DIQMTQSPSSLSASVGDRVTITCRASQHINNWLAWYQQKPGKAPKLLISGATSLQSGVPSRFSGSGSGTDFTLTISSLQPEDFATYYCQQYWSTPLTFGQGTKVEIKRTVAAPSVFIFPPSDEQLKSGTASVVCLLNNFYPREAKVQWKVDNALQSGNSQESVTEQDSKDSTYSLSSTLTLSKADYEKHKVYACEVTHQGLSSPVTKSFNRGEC
T1 sequence (P0DOX7 other isoform, or with tags, fused parts or gaps limits assumed, chain 2 of 2, other chains not shown): as the sequence (P0DOX7 other isoform, or with tags, fused parts or gaps F157E F157E limits assumed, chain 2 of 2, other chains not shown) above

binding result (AMU1114): no binding
binding result [1]: no binding
B1: mouse urokinase receptor (receptor)
chain: LQCMQCESNQSCLVEECALGQDLCRTTVLREWQDDRELEVVTRGCAHSEKTNRTMSYRMGSMIISLTETVCATNLCNRPRPGARGRAFPQGRYLECASCTSLDQSCERGREQSLQCRYPTEHCIEVVTLQSTERSLKDEDYTRGCGSLPGCPGTAGFHSNQTFHFLKCCNYTHCNGGPVLDLQSFPPNGFQCYSCEGNNTLGCSSEEASLINCRGPMNQCLVATGLDVLGNRSYTVRGCATASWCQGSHVADSFPTHLNVSVSCCHGSGCNSPTGHHHHHH
notes: Immobilized on the plate at 1 µg/mL
